Reference: patent US10533038B2, “Methods of reducing TDP-43-mediated neuronal cytotoxicity in amyotrophic lateral sclerosis by a UPF1 polypeptide or polynucleotide” (Brandeis University, priority 2012, dated 2020)
“Also recorded” adds a separate entry of the source.

B1: UPF1: protein involved in nonsense-mediated mRNA decay (NMD), expressed in neurons; amino acid sequence SEQ ID NO: 2 (protein, listed as Homo sapiens)
chain: MSVEAYGPSSQTLTFLDTEEAELLGADTQGSEFEFTDFTLPSQTQTPPGGPGGPGGGGAGSPGGAGAGAAAGQLDAQVGPEGILQNGAVDDSVAKTSQLLAELNFEEDEEDTYYTKDLPIHACSYCGIHDPACVVYCNTSKKWFCNGRGNTSGSHIVNHLVRAKCKEVTLHKDGPLGETVLECYNCGCRNVFLLGFIPAKADSVVVLLCRQPCASQSSLKDINWDSSQWQPLIQDRCFLSWLVKIPSEQEQLRARQITAQQINKLEELWKENPSATLEDLEKPGVDEEPQHVLLRYEDAYQYQNIFGPLVKLEADYDKKLKESQTQDNITVRWDLGLNKKRIAYFTLPKTDSDMRLMQGDEICLRYKGDLAPLWKGIGHVIKVPDNYGDEIAIELRSSVGAPVEVTHNFQVDFVWKSTSFDRMQSALKTFAVDETSVSGYIYHKLLGHEVEDVITKCQLPKRFTAQGLPDLNHSQVYAVKTVLQRPLSLIQGPPGTGKTVTSATIVYHLARQGNGPVLVCAPSNIAVDQLTEKIHQTGLKVVRLCAKSREAIDSPVSFLALHNQIRNMDSMPELQKLQQLKDETGELSSADEKRYRALKRTAERELLMNADVICCTCVGAGDPRLAKMQFRSILIDESTQATEPECMVPVVLGAKQLILVGDHCQLGPVVMCKKAAKAGLSQSLFERLVVLGIRPIRLQVQYRMHPALSAFPSNIFYEGSLQNGVTAADRVKKGFDFQWPQPDKPMFFYVTQGQEEIASSGTSYLNRTEAANVEKITTKLLKAGAKPDQIGIITPYEGQRSYLVQYMQFSGSLHTKLYQEVEIASVDAFQGREKDFIILSCVRANEHQGIGFLNDPRRLNVALTRARYGVIIVGNPKALSKQPLWNHLLNYYKEQKVLVEGPLNNLRESLMQFSKPRKLVNTINPGARFMTTAMYDAREAIIPGSVYDRSSQGRPSSMYFQTHDQIGMISAGPSHVAAMNIPIPFNLVMPPMPPPGYFGQANGPAAGRGTPKGKTGRGGRQKNRFGLPGPSQTNLPNSQASQDVASQPFSQGALTQGYISMSQPSQMSQPGLSQPELSQDSYLGDEFKSQIDVALSQDSTYQGERAYQHGGVTGLSQY

Columns and labels:
[1] = test system: ALS patients; details: some ALS patients; cited from earlier work
[2] = test system: wild type neurons; test: Kaplan-Meyer survival of wild type motor neurons expressing UPF1; type: cell-based, mice or human; details: UPF1 expression in motor neurons; FIG. 1A
Description: (§1) To test the efficacy of UPF1 in reducing TDP-43 or FUS-mediated cytotoxicity in neurons, UPF1 was expressed in motor neurons expressing disease-associated FUS or TDP-43. Motor neurons were either isolated from mice or created from fibroblasts taken from human ALS patients using iPS cell techniques (described in Yamanaka et al., Cell 126:663-676 (2006)). FUS or TDP-43 were tagged with EGFP (Enhanced Green Fluorescent Protein) and expressed in motor neurons, which were visualized by fluorescent microscopy using mApple.
(§2) The motor neurons died within a few days of FUS or TDP-43 expression due to toxicity of these ALS-related proteins. UPF1 was expressed in the motor neurons and Kaplan-Meyer survival curves were determined.

[3] = test system: FUS/TLS toxicity in yeast; details: yeast model of ALS; Ju et al., PLoS Biol. 2011; cited from earlier work
[4] = test system: TDP-43; test: Cytoplasmic level of TDP-43 in neuronal cells expressing UPF1; type: cell-based; details: expression of UPF1
Description: (§3) The present invention encompasses the surprising finding that NMD agents are useful, among other things, in the treatment or prevention (i.e., delay of onset) of ALS. […] Accordingly, in some embodiments, an NMD agent is provided to the central nervous system of a subject, e.g., a subject suffering from or susceptible to ALS. In some embodiments, an NMD agent is provided to one or more of target cells or tissues of brain, spinal cord, and/or peripheral organs. In some embodiments, target cells or tissues include those cells or tissues that display a disease-associated pathology, symptom, or feature. In some embodiments, target cells or tissues include those cells or tissues in which TDP-43 or FUS/TLS is expressed at an elevated level, e.g., cells in which TDP-43 or FUS/TLS is expressed at an elevated level in the cytoplasm of the cells. As used herein, a target tissue may be a brain target tissue, a spinal cord target tissue and/or a peripheral target tissue.

[5] = test system: motor neurons expressing TDP-43; test: Kaplan-Meyer survival of motor neurons expressing disease-associated TDP-43 and UPF1; type: cell-based, mice or human; details: UPF1 expressed in motor neurons expressing EGFP-tagged TDP-43; FIG. 1B
Description: as §1, §2

[6] = test system: FUS/TLS; test: Cytoplasmic level of FUS/TLS in neuronal cells expressing UPF1; type: cell-based; details: expression of UPF1
Description: as §3

[7] = test system: motor neurons expressing FUS; test: Survival of motor neurons expressing disease-associated FUS and UPF1; type: cell-based, mice or human; details: UPF1 expressed in cells expressing FUS; data not shown
Description: as §1, §2

[8] = test system: ALS-associated TDP-43 mutations in yeast; test: Yeast model of ALS: suppression of cytotoxicity of TDP-43 mutations; type: cell-based
[9] = test system: ALS-associated mutants of SOD1; test: Rescue of toxicity of ALS-associated mutants of SOD1 by UPF1 expression; type: cell-based

Molecule | extension of lifespan of ALS patients [1] | effect on survival of wild type neurons [2] | toxicity of FUS/TLS in yeast [3] | cytoplasmic levels of TDP-43 in the neuronal cells [4] | toxicity of TDP-43 in motor neurons [5] | cytoplasmic levels of FUS/TLS in the neuronal cells [6] | toxicity of FUS in motor neurons [7] | cytotoxicity of ALS-associated TDP-43 mutations in yeast [8] | rescue of toxicity of ALS-associated mutants of SOD1 [9]
Nc1nc2ccc(OC(F)(F)F)cc2s1 [riluzole] | about 3 months |  |  |  |  |  |  |  | 
B1 |  | no effect | able to rescue toxicity; also recorded: suppressed toxicity | no effect | reduces cellular toxicity; also recorded: completely eliminate the toxicity of TDP-43 in a dose-dependent manner | no effect | reduces cellular toxicity | able to suppress the cytotoxicity | unable to rescue
